Assay results: paper PMC4709591

Tests used:
[1] = target: human toll-like receptor 5 (TLR5) (human) (UniProt O60602)
[2] = target: human toll-like receptor 5 (TLR5) (human) (UniProt O60602); remark: listed apart in the source
[3] = target: human toll-like receptor 5 (TLR5) (human) (UniProt O60602); remark: listed apart in the source
[4] = target: human toll-like receptor 5 (TLR5) (human) (UniProt O60602); remark: listed apart in the source

Sequence of UniProt O60602 (O60602 21-858): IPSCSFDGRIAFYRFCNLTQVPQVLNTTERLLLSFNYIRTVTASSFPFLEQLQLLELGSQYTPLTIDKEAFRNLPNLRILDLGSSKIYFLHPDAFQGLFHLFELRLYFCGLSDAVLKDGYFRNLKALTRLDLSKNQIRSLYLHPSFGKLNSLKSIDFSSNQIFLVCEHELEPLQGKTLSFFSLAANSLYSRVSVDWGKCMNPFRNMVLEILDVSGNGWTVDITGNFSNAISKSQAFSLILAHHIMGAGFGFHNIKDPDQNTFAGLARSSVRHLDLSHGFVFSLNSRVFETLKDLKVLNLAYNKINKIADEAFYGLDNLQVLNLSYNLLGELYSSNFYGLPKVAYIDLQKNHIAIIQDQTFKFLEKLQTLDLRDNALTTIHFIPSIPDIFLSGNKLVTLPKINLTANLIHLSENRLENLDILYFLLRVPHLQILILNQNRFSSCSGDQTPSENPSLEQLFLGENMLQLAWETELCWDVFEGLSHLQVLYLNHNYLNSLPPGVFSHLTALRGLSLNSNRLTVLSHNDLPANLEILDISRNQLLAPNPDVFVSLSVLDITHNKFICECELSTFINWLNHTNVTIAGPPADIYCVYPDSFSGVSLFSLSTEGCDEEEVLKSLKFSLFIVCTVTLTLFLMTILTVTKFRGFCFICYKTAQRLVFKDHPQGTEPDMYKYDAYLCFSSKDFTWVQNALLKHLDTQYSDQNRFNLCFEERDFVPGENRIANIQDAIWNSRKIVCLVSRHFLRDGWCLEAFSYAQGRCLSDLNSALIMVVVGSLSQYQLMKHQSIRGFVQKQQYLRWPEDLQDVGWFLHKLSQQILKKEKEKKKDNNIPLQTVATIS

For “flagellin mutant SS1 (L12-N484 replaced with cysteine) (from UniProt P06179 1-495) (natural protein)”, the EC50 of bioactivity (cell-based TLR5 stimulation assay); decreased against native flagellin [1] was < 10 pM.

In the case of “flagellin-HBc VLP conjugate with 33 flagellins on a VLP (1:2 reactant ratio) (from UniProt P06179 1-495) (complex)”, the potency of TLR5 stimulation, based on flagellin concentration (SEAP reporter in HEK-Blue-hTLR5 cells) [2] is reported as 1 pM and the bioactivity against free flagellin (SEAP reporter in HEK-Blue-hTLR5 cells) [3] is reported as 7 fold.

For “flagellin-HBc VLP conjugate with 10 flagellins on a VLP (1:10 reactant ratio) (from UniProt P06179 1-495) (complex)”, the bioactivity against free flagellin (SEAP reporter in HEK-Blue-hTLR5 cells) [3] was 7 fold.

For “flagellin mutant SS3 (Q22-T477 replaced with cysteine) (from UniProt P06179 1-495) (natural protein)”, the EC50 of bioactivity (cell-based TLR5 stimulation assay); decreased against native flagellin [1] was < 10 pM.

Substance “flagellin without the C-terminal D0 domain (S452-R495) (from UniProt P06179 1-451) (domain or fragment)” has an EC50 of bioactivity (SEAP reporter in HEK-Blue-hTLR5 cells) [4] of 80 pM.

In the case of “flagellin mutant SS4 (G35-S457 replaced with cysteine) (from UniProt P06179 1-495) (natural protein)”, the EC50 of bioactivity (cell-based TLR5 stimulation assay); decreased against native flagellin [1] is reported as < 10 pM.

For “flagellin mutant SS5 (L36-D456 replaced with cysteine) (from UniProt P06179 1-495) (natural protein)”, the EC50 of bioactivity (cell-based TLR5 stimulation assay); decreased against native flagellin [1] was < 10 pM.

For “flagellin mutant SS2 (Q22-Q473 replaced with cysteine) (from UniProt P06179 1-495) (natural protein)”, the EC50 of bioactivity (cell-based TLR5 stimulation assay); decreased against native flagellin [1] was < 10 pM.

For “flagellin mutant SS6 (A51-R451 replaced with cysteine) (from UniProt P06179 1-495) (natural protein)”, the EC50 of bioactivity (cell-based TLR5 stimulation assay); decreased against native flagellin [1] was < 10 pM.

“flagellin-HBc VLP conjugate with 2 flagellins on a VLP (1:40 reactant ratio) (from UniProt P06179 1-495) (complex)” was tested, and the potency of TLR5 stimulation, based on flagellin concentration (SEAP reporter in HEK-Blue-hTLR5 cells) [2] was 1 pM and the bioactivity against free flagellin (SEAP reporter in HEK-Blue-hTLR5 cells) [3] was 7 fold.

“soluble SS5 HIII flagellin (L36C-D456C; HPG1+A2I+M310I+M466I) (from UniProt P06179 1-495) (natural protein)” gave a minimum flagellin concentration stimulating the TLR5 receptors (SEAP reporter in HEK-Blue-hTLR5 cells) [3] of 0.2 pM.

With “flagellin (FliC) from S. typhimurium SL1344, full-length (from UniProt P06179 1-495) (natural protein)” the EC50 of bioactivity (SEAP reporter in HEK-Blue-hTLR5 cells) [4] was 1.3 pM.
